# According to article PMC10611921, “Assessing the dynamics and macromolecular interactions of the intrinsically disordered protein YY1” (Bioscience Reports, 2023):
# T1: FOXP2 FHD (UniProt O15409 504-594)
# T1 sequence: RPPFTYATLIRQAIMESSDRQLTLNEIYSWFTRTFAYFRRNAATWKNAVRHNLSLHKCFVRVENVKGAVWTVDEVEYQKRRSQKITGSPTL
# Columns and labels:
# [1] = target: T2, Yin Yang 1 (YY1), full-length, N-terminal hexahistidine tag (UniProt P25490 1-414, NTA ATTO 550 on the N-terminal hexahistidine tag (the labelled copy in the anisotropy assays)); assay: fluorescence polarisation; fluorescence anisotropy; unlabelled FOXP2 FHD titrated into 0.2 μM YY1 labelled with NTA ATTO 550; 300 mM NaCl, 10 mM HEPES pH 7.5, 20°C; single site model, apparent KD; settings: both partners purified
# T2 construct: YY1 (Yin Yang 1), full-length construct; A heterogeneous mixture of oligomers in solution; In the anisotropy assays 0.2 μM YY1 carried NTA ATTO 550 on the His tag; the titrated YY1 was unlabelled; also called Ying Yang 1; source: T7 cells (Genscript), pET-11A plasmid, purified (IMAC on cobalt, size exclusion chromatography); not shown: His6, N-terminal, kept
# [2] = target: T2, Yin Yang 1 (YY1), full-length, …; assay: fluorescence polarisation; fluorescence anisotropy; unlabelled FOXP2 FHD titrated into 0.2 μM YY1 labelled with NTA ATTO 550; 100 mM NaCl, 10 mM HEPES pH 7.5, 20°C; single site model, apparent KD; settings: both partners purified
# [3] = target: T2, Yin Yang 1 (YY1), full-length, …; assay: fluorescence polarisation; fluorescence anisotropy; unlabelled FOXP2 FHD titrated into 0.2 μM YY1 labelled with NTA ATTO 550 in the presence of 10 μM background AAV P5 promoter DNA (YY1 specific); 100 mM NaCl, 10 mM HEPES pH 7.5, 20°C; settings: both partners purified
# [4] = target: T2, Yin Yang 1 (YY1), full-length, …; assay: fluorescence polarisation; fluorescence anisotropy; unlabelled FOXP2 FHD titrated into 0.2 μM YY1 labelled with NTA ATTO 550; 500 mM NaCl, 10 mM HEPES pH 7.5, 20°C; single site model, apparent KD; settings: both partners purified
# FOXP2 FHD [5] = target: T1, FOXP2 FHD; assay: EMSA; single complex, no YY1; Anisotropy: 10 mM HEPES pH 7.5, 100 mM NaCl, 20 C; EMSA: 0.5 uM DNA, 20% (v/v) of binding buffer (10 mM HEPES pH 7.5, 1 mM MgCl2, 100 mM KCl, 10% glycerol, 0.1); settings: protein: recombinant; tags: His6 removed with thrombin
# [6] = target: YY1 labelled with NTA ATTO 550 (UniProt P25490 1-414); assay: fluorescence anisotropy; apparent KD; 0.2 uM labelled YY1, DNA titrated; 100 mM NaCl; Anisotropy: 10 mM HEPES pH 7.5, 100 mM NaCl, 20 C; EMSA: 0.5 uM DNA, 20% (v/v) of binding buffer (10 mM HEPES pH 7.5, 1 mM MgCl2, 100 mM KCl, 10% glycerol, 0.1); settings: protein: recombinant; tags: N-terminal His6 (NTA ATTO 550 label)
# FOXP2 FHD [7] = target: T1, FOXP2 FHD; assay: EMSA; control gel; no specific binding; Anisotropy: 10 mM HEPES pH 7.5, 100 mM NaCl, 20 C; EMSA: 0.5 uM DNA, 20% (v/v) of binding buffer (10 mM HEPES pH 7.5, 1 mM MgCl2, 100 mM KCl, 10% glycerol, 0.1); settings: protein: recombinant; tags: His6 removed with thrombin
# T2 sequence (P25490 whole entry): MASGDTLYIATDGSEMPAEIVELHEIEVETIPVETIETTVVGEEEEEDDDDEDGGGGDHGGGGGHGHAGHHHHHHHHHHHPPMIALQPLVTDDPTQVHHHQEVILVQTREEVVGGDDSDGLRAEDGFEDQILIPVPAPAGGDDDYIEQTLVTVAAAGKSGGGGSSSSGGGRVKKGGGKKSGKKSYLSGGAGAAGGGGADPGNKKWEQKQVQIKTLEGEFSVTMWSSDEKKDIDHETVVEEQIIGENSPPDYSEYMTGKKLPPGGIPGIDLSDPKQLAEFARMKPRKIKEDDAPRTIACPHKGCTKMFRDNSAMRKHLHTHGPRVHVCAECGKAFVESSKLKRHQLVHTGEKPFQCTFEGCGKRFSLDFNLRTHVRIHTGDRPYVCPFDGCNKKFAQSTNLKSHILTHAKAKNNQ
# YY1 labelled with NTA ATTO 550, sequence (P25490 whole entry): as above
binder,measurement,setting,value
"FOXP2 forkhead domain (FHD) (domain or fragment, UniProt O15409 504-594, looked up, also called FOXP2 FHD; forkhead box P2 forkhead domain; source: T7 cells (Genscript), pET-11A plasmid, purified (IMAC on nickel; His-tag removed with thrombin, benzamidine and HiTrap columns); not shown: His6, N-terminal, cleaved) RPPFTYATLIRQAIMESSDRQLTLNEIYSWFTRTFAYFRRNAATWKNAVRHNLSLHKCFVRVENVKGAVWTVDEVEYQKRRSQKITGSPTL",Kd,[1],~28 µM
same,Kd,[2],~73 µM
same,Kd,[3],58 ± 6 µM
same,Kd,[4],~67 µM
CNTNAP2 DNA (dsDNA) DNA 1: TTTGATTGTTTACTTTGTTC DNA 2: GAACAAAGTAAACAATCAAA,binding result,FOXP2 FHD [5],binds
AAV P5 DNA (dsDNA) DNA 1: AGGGTCTCCATTTTGAAGCG DNA 2: CGCTTCAAAATGGAGACCCT,Kd,[6],3.7 ± 0.4 µM
same,binding result,FOXP2 FHD [7],no binding
